Tests used:
[1] = target: βAPP-C100 binding site on NGF-treated PC12 cells; test: saturation binding of 35S-βAPP-C100 to NGF-treated PC12 cells, filtration, 4° C.
[2] = target: βAPP-C100 binding site on NGF-treated PC12 cells; test: inhibition of 35S-βAPP-C100 binding to NGF-treated PC12 cells by unlabeled βAPP-C100
[3] = target: βAPP-C100 binding site on NGF-treated PC12 cells; test: competition with 35S-βAPP-C100 for binding to NGF-treated PC12 cells

Substance: flag-βAPP-C100 (from UniProt P05067-4) (ligand)
- Kd [1]: 0.81 nM
- IC50 [2]: 1.7 nM

Substance: Phe687-βAPP-C100 (from UniProt P05067-4) (ligand)
- IC50 [3]: > 14 nM
- times less potent than the native form [3]: > 20 times

Source: US6083713
